One assay concerns the target activated T cells (UniProt Q9Y5U5). The assay is described as follows: FACS binding, activated T cells; isotype control. Background: In flow cytometry, cells or beads pass a laser one at a time.
The target of assay [1] is human GITR, membrane bound (human) (UniProt Q9Y5U5). The assay is described as follows: cell-based or functional assay.

pEC50: −log10 of the molar value.

Chain of activated T cells (Q9Y5U5 26-241): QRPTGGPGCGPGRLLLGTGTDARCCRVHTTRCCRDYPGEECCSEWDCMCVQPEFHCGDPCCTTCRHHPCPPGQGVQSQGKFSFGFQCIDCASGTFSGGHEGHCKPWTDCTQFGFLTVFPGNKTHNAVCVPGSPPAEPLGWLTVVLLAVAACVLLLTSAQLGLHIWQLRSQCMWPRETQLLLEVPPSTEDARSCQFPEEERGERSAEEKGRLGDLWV
Chain of human GITR, membrane bound (human) (Q9Y5U5 26-241): as above

Take unrelated hIgG1: the negative-log EC50 (pEC50) (in general, −log10 of the EC50, conventionally taken in molar units) with activated T cells is 6.88. hIgG1 Isotype Control (antibody): in assay [1], the NFKB signaling (phospho-p65), CD4+ T cells, Emax (%) turned out to be 4% and the NFKB signaling (phospho-p65), CD8+ T cells, Emax (%) came out at 6%. Substance unrelated hIgG2 showed a pEC50 in the assay with activated T cells of 8.17.
